Measured values taken from patent US20260250352A1 (ALPINE IMMUNE SCIENCES, published 2026).
Several values for one entry are separate records, joined by “and”; a condition that tells them apart may be missing. Equal values may be shown once. Read-outs that look alike come from different tables or passages of the source.

T1: recombinant human APRIL (human, UniProt O75888 105-250, limits assumed)
T1 sequence (looked up): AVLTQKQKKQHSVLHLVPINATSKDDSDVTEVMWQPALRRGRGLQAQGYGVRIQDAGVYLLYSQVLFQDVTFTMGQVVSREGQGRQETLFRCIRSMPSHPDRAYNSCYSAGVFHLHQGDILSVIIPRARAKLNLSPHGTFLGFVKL

T2: recombinant mouse APRIL (mouse, UniProt Q9D777 96-241, limits assumed)
T2 sequence (looked up): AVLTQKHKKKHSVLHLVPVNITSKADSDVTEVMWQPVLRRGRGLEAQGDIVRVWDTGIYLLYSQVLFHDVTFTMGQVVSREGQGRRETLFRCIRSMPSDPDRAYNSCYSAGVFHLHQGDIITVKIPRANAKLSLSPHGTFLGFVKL


Legend:
[1] = biological target: single chain APRIL-BAFF-BAFF heterotrimer (ABB) (human, UniProt O75888 111-250; Q9Y275 140-285; Q9Y275 140-285, limits assumed); assay: cell-based or functional assay
[2] = biological target: single chain BAFF homotrimer (BAFF-BAFF-BAFF) (human, UniProt Q9Y275 140-285, limits assumed); assay: cell-based or functional assay
[3] = biological target: T3, recombinant human BAFF (human, UniProt Q9Y275 134-285); assay: cell-based or functional assay
[4] = biological target: T3, recombinant human BAFF; assay: cell-based or functional assay; remark: listed apart in the source
[5] = biological target: T3, recombinant human BAFF; assay: cell-based or functional assay; remark: listed apart in the source
[6] = biological target: T3, recombinant human BAFF; assay: cell-based or functional assay; remark: listed apart in the source
[7] = biological target: BAFF 60-mer (human, UniProt Q9Y275 134-285, limits assumed); assay: cell-based or functional assay
[8] = biological target: single chain BAFF-APRIL-APRIL heterotrimer (BAA) (human, UniProt Q9Y275 140-285; O75888 111-250; O75888 111-250, limits assumed); assay: cell-based or functional assay
[9] = biological target: T1, recombinant human APRIL; assay: cell-based or functional assay
[10] = biological target: T1, recombinant human APRIL; assay: cell-based or functional assay; remark: listed apart in the source
[11] = biological target: recombinant mouse BAFF (mouse, UniProt Q9WU72 127-309); assay: cell-based or functional assay
[12] = biological target: T2, recombinant mouse APRIL; assay: cell-based or functional assay
[13] = biological target: T3, recombinant human BAFF; assay: SPR

Chain of recombinant mouse BAFF (Q9WU72 127-309 limits assumed): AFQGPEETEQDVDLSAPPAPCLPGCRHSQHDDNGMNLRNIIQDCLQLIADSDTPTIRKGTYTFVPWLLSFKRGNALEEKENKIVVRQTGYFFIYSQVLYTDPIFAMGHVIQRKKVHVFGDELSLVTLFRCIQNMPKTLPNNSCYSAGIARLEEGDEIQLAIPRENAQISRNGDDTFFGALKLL

Row | IC50, TACI/Jurkat/NF-kB reporter [1] [nM] | IC50, TACI/Jurkat/NF-kB reporter [2] [nM] | IC50, Jurkat/NF-kB/TACI reporter [3] [nM] | IC50 relative to TACI 30-110-Fc [3] [ratio] | IC50, Jurkat/NF-kB/TACI reporter [4] [nM] | IC50, Jurkat/NF-kB/TACI reporter [5] | IC50 relative to WT TACI (68-110)-Fc (Δ WT) [5] [ratio] | IC50, TACI/Jurkat/NF-kB reporter [6] [nM] | IC50, TACI/Jurkat/NF-kB reporter [7] [nM] | IC50, TACI/Jurkat/NF-kB reporter [8] [nM] | IC50, Jurkat/NF-kB/TACI reporter [9] [nM] | IC50, TACI/Jurkat/NF-kB reporter [10] [nM] | IC50, TACI/Jurkat/NF-kB reporter [11] [nM] | IC50, TACI/Jurkat/NF-kB reporter [12] [nM] | Kd [13] [nM] | koff [13] [s⁻¹] | kon [13] [M⁻¹ s⁻¹] | Binder
1 | 0.09 | 8.52 | 2500 | 0.43 | 2.26 | 2.19 nM | 1.18 | 4.8 |  |  |  |  |  |  |  |  |  | Belimumab (antibody, V domains shown) VH: QVQLQQSGAEVKKPGSSVRVSCKASGGTFNNNAINWVRQAPGQGLEWMGGIIPMFGTAKYSQNFQGRVAITADESTGTASMELSSLRSEDTAVYYCARSRDLLLFPHHALSPWGRGTMVTVSS VL: SSELTQDPAVSVALGQTVRVTCQGDSLRSYYASWYQQKPGQAPVLVIYGKNNRPSGIPDRFSGSSSGNTASLTITGAQAEDEADYYCSSRDSSGNHWVFGGGTELTVLG
2 | 0.408 | 30.8 |  |  | 6.85 | 9.17 nM and 7.3 nM |  | 14.5 | > 100 | 0.173 | 17.2 | 53.9 | 7.9 | 15.5 | 0.491 | 8.63e-05 | 175000 | Telitacicept (Fc fusion, The drug is a disulfide-linked Fc-fusion homodimer. Only one TACI ECD arm is given, and the Fc is left out., Commercial product (sourced through Clinigen; RemeGen); also called Telitacicept/Tai'ai (RemeGen); WT TACI-Fc (Telitacicept); not shown: Fc part of the commercial drug (Clinigen/RemeGen)) SRVDQEERFPQGLWTGVAMRSCPEEQYWDPLLGTCMSCKTICNHQSQRTCAAFCRSLSCRKEQGKFYDHLLRDCISCASICGQHPKQCAYFCENKLRSPVNLPPEL
